{
  "source": "paper PMC10325834",
  "about": "“Characteristics of Mycobacterium tuberculosis PtpA interaction and activity on the alpha subunit of human mitochondrial trifunctional protein, a key enzyme of lipid metabolism” (Frontiers in Cellular and Infection Microbiology, 2023)",
  "biological_target": "T1, human mitochondrial trifunctional protein (hTFP α/β) immunopurified from macrophages (human (endogenous in macrophages), UniProt P40939-1 37-763; P55084 34-474, phosphotyrosine: 21% of the immunopurified hTFP is phosphorylated on Tyr (sites not identified))",
  "T1 construct": "also called immunopurified hTFP; hTFPα from macrophages; source: endogenous, macrophage extract; immunoprecipitated with anti-TFP monoclonal antibody (ab110302) on beads, eluted with 50 mM citrate pH 2.6",
  "T1 sequence (P40939 37-763, chain 1 of 2)": "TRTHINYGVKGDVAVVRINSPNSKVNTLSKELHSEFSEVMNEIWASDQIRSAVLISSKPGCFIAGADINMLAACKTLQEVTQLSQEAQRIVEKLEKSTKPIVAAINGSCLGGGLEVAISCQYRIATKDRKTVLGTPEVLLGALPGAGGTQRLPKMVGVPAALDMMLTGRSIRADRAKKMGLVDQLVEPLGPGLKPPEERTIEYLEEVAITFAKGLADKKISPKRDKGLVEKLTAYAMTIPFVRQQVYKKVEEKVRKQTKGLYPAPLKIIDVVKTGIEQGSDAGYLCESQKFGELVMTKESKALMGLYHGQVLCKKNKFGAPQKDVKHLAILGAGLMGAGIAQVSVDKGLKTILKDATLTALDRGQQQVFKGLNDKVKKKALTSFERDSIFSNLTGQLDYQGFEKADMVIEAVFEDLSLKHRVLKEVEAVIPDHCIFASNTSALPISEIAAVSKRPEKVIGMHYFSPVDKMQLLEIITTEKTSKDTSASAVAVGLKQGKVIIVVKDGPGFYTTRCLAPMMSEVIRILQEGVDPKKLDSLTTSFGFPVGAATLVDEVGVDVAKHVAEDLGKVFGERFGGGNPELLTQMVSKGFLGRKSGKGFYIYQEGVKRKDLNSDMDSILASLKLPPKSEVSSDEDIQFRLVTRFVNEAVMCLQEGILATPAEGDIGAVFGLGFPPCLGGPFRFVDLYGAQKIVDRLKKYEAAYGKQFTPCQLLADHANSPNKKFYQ",
  "T1 sequence (P55084 34-474, chain 2 of 2)": "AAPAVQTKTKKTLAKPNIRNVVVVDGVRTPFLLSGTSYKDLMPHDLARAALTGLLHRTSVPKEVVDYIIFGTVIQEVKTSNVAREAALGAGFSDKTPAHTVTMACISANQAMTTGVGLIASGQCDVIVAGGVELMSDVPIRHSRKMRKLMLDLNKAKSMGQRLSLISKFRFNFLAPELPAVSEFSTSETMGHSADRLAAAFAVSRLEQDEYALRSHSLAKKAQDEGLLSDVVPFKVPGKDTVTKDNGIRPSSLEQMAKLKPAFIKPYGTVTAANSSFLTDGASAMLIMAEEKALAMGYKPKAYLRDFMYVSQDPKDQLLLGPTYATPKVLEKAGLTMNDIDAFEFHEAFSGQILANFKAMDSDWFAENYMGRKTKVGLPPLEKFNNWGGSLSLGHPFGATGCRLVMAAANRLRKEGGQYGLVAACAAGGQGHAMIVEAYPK",
  "assay": "SPR",
  "conditions": "both partners purified",
  "data": [
    {"binder": "Mycobacterium tuberculosis PtpA, recombinant wild type (enzyme, also called rPtpA; PtpA-wt) MSDPLHVTFVCTGNICRSPMAEKMFAQQLRHRGLGDAVRVTSAGTGNWHVGSCADERAAGVLRAHGYPTDHRAAQVGTEHLAADLLVALDRNHARLLRQLGVEAARVRMLRSFDPRSGTHALDVEDPYYGDHSDFEEVFAVIESALPGLHDWVDERLARNGPS", "values": [
      {"measurement": "Kd", "value": 310, "unit": "nM"}
    ]}
  ]
}
